Data taken from US20200270345A1 (JOINT STOCK COMPANY BIOCAD, published 2020).

Assays:
human CD47-Fc [1] = target: T1, human CD47-Fc (human, UniProt Q08722 19-134); assay: competitive ELISA without VHH: uninhibited SIRP-Fc / CD47-Fc signal
T1 construct: Leu19-Val134 is the natural numbering printed; also called human CD47-Fc receptor; human CD47-Fc (Biocad); not shown: Fc tag of the expression plasmid

human CD47-Fc [2] = target: T1, human CD47-Fc; assay: competitive ELISA, competitor SIRP-Fc; lower OD means more blocking
human CD47-Fc [3] = target: T1, human CD47-Fc; assay: BLI (Octet Red 96), CD47-Fc on ARG2 sensor, VHH in growth medium, 1:1 model
Procedure: VHH antibody fragments were measured to provide an example of analysis of kinetic parameters of interaction of antibody fragments that specifically bind to CD47 receptor. Dissociation constant (kdis)-based comparative screening for VHH fragments was performed using Octet Red 96 and ARG2 amino-reactive biosensors (Pall-ForteBio). Affinity constants can be calculated based on the exact protein concentration in the test solution, and, since cell growth media were used as a protein solution and protein concentrations were not measured, the candidates were compared to each other by using the dissociation constant thereof. Biosensors were pre-rehydrated for an hour in water. After activating biosensors, CD47-Fc at a concentration of 10 μg/ml in acetate buffer pH4 was non-specifically (by NH2 groups) immobilized onto the biosensor. The sensors were then immersed into wells containing cell growth medium with specific VHHs (from about 1 μg of VHH in 1 ml of medium), where the complex was associated. The sensors were then immersed in a buffer solution, where the subsequent stage of dissociation of the complex took place. 1/10 of the volume of 10× working buffer was added to the test specimens in E. Coli growth medium containing anti-CD47 VHH fragments. The obtained curves were analyzed using OctetDataAnalysis (version 7.0) according to the standard procedure with 1:1 interaction model.

human CD47-Fc [4] = target: T1, human CD47-Fc; assay: ELISA, CD47-Fc coated, VHH in E. coli supernatant, anti-myc detection, 450 nm
Procedure: ELISA was used to measure the binding of specific test antibody fragments of Example 4 to human CD47-Fc. ELISA well plates (Nunc ImmunoMaxisorp) were covered with 50 μl/well of human CD47-Fc (Biocad) (0.5 μg/ml in 1× coating carbonate buffer), sealed, and incubated overnight at 4° C. All further stages were performed in accordance with standard ELISA protocols with a high-performance automated platform based on robotic systems such as GenetixQ-pix2xt (Molecular Devices) and Tecan Freedom EVO 200 (Tecan). Non-specific binding was blocked by adding a blocking buffer BB (200 μl 0.5% fat-free milk in PBS). Plates were incubated on a shaker for 1 h at room temperature. After washing with PBS-Tween, each cell was coated with 100 μl of cell supernatant containing the test antibody fragment. The plates were incubated on a shaker for 1 hour at room temperature; further, each plate well was 5 times washed with PBS-Tween buffer. After washing, mouse anti-MYC IgG clone 9E10 (ThermoFisher Scientific) (50 μl/well) was added to PBS-Tween (1:5000). The plates were shaken in rotation shaker (50 min at room temperature) and then 5 times washed with PBS-Tween buffer as described above. After washing, anti-mouse IgG HRP conjugate (ThermoFisher Scientific) (50 μl/well) was added to PBS-Tween (1:10000). The plates were shaken in rotation shaker (50 min at room temperature) and then 5 times washed with PBS-Tween buffer as described above. Colorimetric signal was obtained by adding TMB (50 μl/well) until saturated (average of 10-12 min); further color development was blocked by adding a stop solution (25 μl/well, 1% sulfuric acid). Color signal was measured at 450 nm using a suitable Tecan-Sunrise plate reader (Tecan). Antibody binding was proportional to the signal produced.

CD47 proprietary = CD47 proprietary (human, UniProt Q08722 19-134, limits assumed); assay: ELISA on CD47 proprietary, 450 nm
Chain of CD47 proprietary (Q08722 19-134 limits assumed): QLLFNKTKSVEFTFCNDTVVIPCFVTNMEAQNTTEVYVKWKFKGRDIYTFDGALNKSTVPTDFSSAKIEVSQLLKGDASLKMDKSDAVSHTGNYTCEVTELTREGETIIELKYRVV

T1 sequence (Q08722 19-134): as the sequence (Q08722 19-134 limits assumed) above
Chain of SIRP-Fc ligand (BIOCAD) (P78324 31-370 limits assumed): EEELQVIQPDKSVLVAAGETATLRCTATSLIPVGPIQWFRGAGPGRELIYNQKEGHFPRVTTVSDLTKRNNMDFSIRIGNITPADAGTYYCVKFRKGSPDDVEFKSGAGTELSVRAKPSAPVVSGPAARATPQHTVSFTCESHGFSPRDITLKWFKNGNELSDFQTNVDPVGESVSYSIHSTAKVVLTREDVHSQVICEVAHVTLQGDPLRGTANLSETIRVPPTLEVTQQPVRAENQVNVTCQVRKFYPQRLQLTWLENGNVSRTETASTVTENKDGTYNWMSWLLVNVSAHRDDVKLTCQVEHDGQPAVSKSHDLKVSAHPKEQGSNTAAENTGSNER

| OD units, competitive screening to SIRP-Fc (human CD47-Fc [1]) [OD units] | OD units, competitive screening to SIRP-Fc (human CD47-Fc [2]) [OD units] | koff (human CD47-Fc [3]) [s⁻¹] | OD units, initial screening for CD47-Fc (human CD47-Fc [4]) [OD units] | OD units, binding on CD47 proprietary (CD47 proprietary) [OD units] | Molecule |
| --- | --- | --- | --- | --- | --- |
| 0.481 | – | – | – | – | SIRP-Fc ligand (BIOCAD) (from UniProt P78324 31-370) (Fc fusion) |
| – | 0.095 | 0.006 | 0.4 | 0.448 | BCD106-02_L.Alecto.VHHSel2_MP1_H10_78 (VHH, Llama anti-CD47 VHH tested as E. coli culture supernatant; not shown: myc and His6 tags at the C-terminus of the VHH (pET-22)) VHH: QVKLEESGGGLVQPGGSLRLSCAASRSISSINAMNWYRQAPGKRREWVAQITGEGITNYRDSVKGRFTITSDNAKNTMYLQMNSLKPEDTAVYYCNAFVIHTTSEVYWGQGTLVTVSS |
| – | 0.088 | 0.008 | 0.319 | 0.498 | BCD106-02_L.Alecto.VHHSel2_MP1_G7_53 (VHH, Llama anti-CD47 VHH tested as E. coli culture supernatant; not shown: myc and His6 tags at the C-terminus of the VHH (pET-22)) VHH: QVKLEESGGGLVQPGGSLTLSCAASGIISSINAMNWYRQAPGKRREWVAQITGEGITNCRDSWKGRFSITSDSANNTMYLQMNNLKPDDTDVYYCNAFVIHTTSEIYWGLGTTVTVSS |

Second part, the molecule before the results:

| Molecule | OD units, competitive screening to SIRP-Fc (human CD47-Fc [1]) [OD units] | OD units, competitive screening to SIRP-Fc (human CD47-Fc [2]) [OD units] | koff (human CD47-Fc [3]) [s⁻¹] | OD units, initial screening for CD47-Fc (human CD47-Fc [4]) [OD units] | OD units, binding on CD47 proprietary (CD47 proprietary) [OD units] |
| --- | --- | --- | --- | --- | --- |
| BCD106-02_L.Alecto.VHHSel2_MP1_G5_37 (VHH, Llama anti-CD47 VHH tested as E. coli culture supernatant; not shown: myc and His6 tags at the C-terminus of the VHH (pET-22)) VHH: AVQLVDSGGGLVQPGGSLRLSCAASRSIFSINAMNWYRQAPGNRREWVAQITDEGITNYVDSVKGRFTITRDNAKNTMYLQMNSLKPEDTAVYYCNAFVITTTSEIYWGQGTTVTVSS | – | 0.143 | 0.006 | 0.166 | 0.426 |
| BCD106-02_L.Alecto.VHHSel2_MP1_C7_49 (VHH, Llama anti-CD47 VHH tested as E. coli culture supernatant; not shown: myc and His6 tags at the C-terminus of the VHH (pET-22)) VHH: AVQLVDSGGGLVQPGGSLRLSCAASRSIFSINAMNWYRQPPGNRREWVAQITDEGITNYVDSVKGRFTITRDNAKNTMYLQMNSLKPEDTAVYYCNAFVITTTSEIYWGQGTTVTVSS | – | 0.14 | 0.005 | 0.127 | 0.379 |
| BCD106-02_L.Alecto.VHHSel2_MP1_F10_76 (VHH, Llama anti-CD47 VHH tested as E. coli culture supernatant; not shown: myc and His6 tags at the C-terminus of the VHH (pET-22)) VHH: DVQLVESGGGLVQPGGSLRLSCAASRNIFSINAMNWYRQAPGKRREWVAQITSEGITNYVDSVKGRFTITRDNAKNTMYLQMNSLKPEDTAVYYCNAFVITASSEVYWGQGTTVTVSS | – | 0.114 | 0.01 | 0.213 | 0.312 |
| BCD106-02_L.Alecto.VHHSel2_MP1_B9_64 (VHH, Llama anti-CD47 VHH tested as E. coli culture supernatant; not shown: myc and His6 tags at the C-terminus of the VHH (pET-22)) VHH: DVQLVESGGGLVQPGGSLTLSCAASRNIFRINAMNWYRQAPGKRREWVAPITSEGITNYVDSVKGRFTITRDNAKNTMYLQMNSLKPEDTAVYYCNACLITASSEVYWGQGTLVTVSS | – | 0.188 | 0.008 | 0.129 | 0.24 |
